# Measured values: the RNAGym collection of RNA variant scans (doi:10.7554/elife.80360)
# B1: HDV Ribozyme (parent)
# chain: GGCCGGCAUGGUCCCAGCCUCCUCGCUGGCGCCGGCUGGGCAACAUUCCGAGGGGACCGUCCCCUCGGUAAUGGCGAAUGGGACCCA
# Variants of: B1
# Assay: self-cleavage, relative activity (ratio to wild type); higher = more cleavage; co-transcriptional
row,Variant,self-cleavage
1,G29A G39C,0.0941
2,G29A G39A,0.0863
3,G29A G39U,0.0432
4,G29A C62A,0.391
5,G28U C30U,0
6,G28U C30A,0.0923
7,G28U C30G,0.0886
8,G28A G82U,0.138
9,G28U G68C,0.0733
10,G28U A56G,0
11,G28U A56U,0.0941
12,G28A G59C,0.086
13,G28A G59U,0.117
14,G29A A42C,0.104
15,G29A C33A,0.104
16,G28C G40C,0.113
17,G28U U47A,0.111
18,G28U U47G,0.095
19,G28U G74C,0.0992
20,G28U G74A,0.0528
21,G28U G74U,0.0639
22,G28A C58U,0.0228
23,G28A C58A,0.0639
24,G29A A77G,0.095

row,Variant,self-cleavage
1,G28A G55C,0.0252
2,G28A G55A,0.153
3,G28C C62U,0.0369
4,G29A C48A,0.262
5,G29A C48G,0.0875
6,G29A C48U,0.0656
7,G28A G50C,0.0978
8,G28C C64U,0.198
9,G28C C64A,0.104
10,G28U C63U,0.12
11,G28A G76U,0.0923
12,G28A G76A,0.0563
13,G28U A70U,0
14,G28U G50C,0.212
15,G28U G50U,0.163
16,G29A G52A,0.0554
17,G28C C66G,0.13
18,G28U A43G,0.131
19,G28U A43C,0.0755
20,G29A G82U,0.0911
21,G28A U46A,0.0326
22,G28A U46C,0.0594
23,G28A C63G,0.148
24,G28A C63A,0.128

row,Variant,self-cleavage
1,G29A C64U,0.144
2,G28C G68C,0.138
3,G28C G68U,0.0426
4,G28A U65A,0.0755
5,G28A U65G,0.0386
6,G28U G80C,0.0639
7,G28C U60C,0.0852
8,G28A G40A,0.0615
9,G28C C61U,0.185
10,G29A G40A,0.237
11,G29A G67C,0.237
12,G29A G67A,0.0791
13,G29A G67U,0.231
14,G28C G82A,0.0852
15,G28C G82U,0.102
16,G28A G52A,0.0764
17,G28A G52U,0.0475
18,G28U A77C,0.0475
19,G29A A78G,0.0804
20,G29A A78C,0.0997
21,G28C C75A,0.113
22,G28C C75U,0.0361
23,G29A A71U,0.0615
24,G28A C61U,0.0631

row,Variant,self-cleavage
1,G28A G34U,0.0277
2,G28C G73C,0.148
3,G28C G73U,0.154
4,G28C A78C,0.0852
5,G29A C36A,0.0222
6,G29A C36G,0.111
7,G28U U72A,0
8,G28U G73A,0
9,G28U G73C,0
10,G28A G73U,0.0326
11,G28A G73C,0.0256
12,G29C A51G,0
13,G28C U46C,0.0723
14,G28C U46G,0.0755
15,G28A C84G,0.0378
16,G28U G53C,0.0692
17,G28U G53U,0.124
18,G28U G53A,0.0801
19,G28C A77U,0.107
20,G28C G54A,0.0639
21,G28A C44U,0.215
22,G28U A87C,0.113
23,G28C C48U,0.0978
24,G28C G29U,0

row,Variant,self-cleavage
1,G28C C33U,0.232
2,G28C C33A,0.106
3,G29A A83G,0.0611
4,G29A A83U,0.208
5,G28A G35U,0.0601
6,G28A U37C,0.151
7,G28U U69C,0.0791
8,G28U U69A,0.162
9,G28A C36G,0.0519
10,G29A C63U,0.226
11,G29A C63G,0.128
12,G28A G29U,0.111
13,G28A G29C,0.0519
14,G28A G29A,0.0978
15,G28C G76C,0.136
16,G28U G35U,0.0936
17,G28C G53C,0
18,G28C G53A,0.0941
19,G28C G53U,0.123
20,G28U C44G,0.111
21,G28U C44A,0
22,G28U C44U,0.0297
23,G28C A71G,0.222
24,G28A C85G,0.0332

row,Variant,self-cleavage
1,G28A C85A,0.0369
2,G29A U72A,0.122
3,G28A G67U,0.0536
4,G28U C41U,0.0779
5,G28C A70G,0
6,G28C A70U,0.101
7,G28C A70C,0.104
8,G28U C66A,0.197
9,G28U C66G,0.277
10,G29A A56G,0.224
11,G29A A56C,0.198
12,G28C A56U,0.138
13,G28C A56G,0.107
14,G28U U46C,0
15,G28U U46G,0
16,G29A A51U,0.277
17,G29A A51G,0.366
18,G29A C32A,0.0222
19,G29A C32U,0.218
20,G28C U37A,0.229
21,G28C U37G,0
22,G28C U72C,0
23,G28C U72G,0.138
24,G28U A71U,0.246

row,Variant,self-cleavage
1,G28U C58G,0.0852
2,G29A U46G,0.166
3,G29A U46C,0.138
4,G28U G67A,0.164
5,G28U G67C,0.0545
6,G29C A43U,0.0519
7,G28U C85U,0.0639
8,G28U C85G,0.108
9,G28A U69G,0
10,G28A C33A,0.107
11,G29C A56C,0.237
12,G29A C57A,0.282
13,G29A C57U,0.234
14,G28C U79A,0
15,G28C U79C,0.155
16,G29A U47A,0.148
17,G28U G55U,0.185
18,G28U G55A,0.0712
19,G29A A70G,0.17
20,G29A A70U,0.0739
21,G29A A70C,0.0978
22,G28U G54U,0.0712
23,G28U G54A,0.115
24,G28U G54C,0.234

row,Variant,self-cleavage
1,G28U C48A,0.125
2,G28U C48U,0.0361
3,G29A G80C,0.145
4,G29A G80A,0.163
5,G28C C49U,0.111
6,G28C A83G,0.0542
7,G28C A83C,0
8,G28C A83U,0.0437
9,G28A G80U,0.0989
10,G29A U60G,0.0923
11,G29A U60C,0.0997
12,G28C A42U,0.166
13,G28C A42G,0
14,G28C A43U,0.111
15,G29A G53U,0.114
16,G28C U47G,0.0536
17,G28C U47C,0.0665
18,G28C U47A,0.0536
19,G28A G54U,0.0733
20,G28A G54A,0.0811
21,G28U C49G,0.116
22,G28C A87U,0.0455
23,G28C A87G,0.125
24,G28C A87C,0.0987

row,Variant,self-cleavage
1,G29A G74U,0.073
2,G28C A45G,0.0811
3,G28C A45C,0.0594
4,G29A C41G,0.0339
5,G29A A45G,0.142
6,G29A A45C,0
7,G29A A45U,0.0332
8,G28C C85A,0.0475
9,G29A C61A,0.177
10,G28C G59U,0.0678
11,G28C G59A,0.185
12,G28A U60A,0.178
13,G28A U60C,0.0811
14,G28A U60G,0.0386
15,G28U G39C,0.125
16,G28U G39A,0.0256
17,G28A C41U,0.0875
18,G28A C41A,0.13
19,G28A C57U,0.163
20,G28A C57G,0
21,G28A C57A,0.0978
22,G28U G38A,0.0863
23,G28U G38C,0.0665
24,G28C G74U,0.0692

row,Variant,self-cleavage
1,G28C G74C,0.151
2,G29A C58U,0.197
3,G29A C58G,0.271
4,G28U C75A,0.0755
5,G28A G38U,0.0496
6,G28U C32G,0.133
7,G29A C49A,0.136
8,G29A U37A,0.136
9,G29A G55U,0.168
10,G29A G55A,0.208
11,G29A G81U,0.125
12,G28C C57G,0.115
13,G28C C57A,0
14,G28U C86G,0.217
15,G28U A83U,0.0415
16,G28C G39C,0
17,G28C G39A,0.0744
18,G28C C32A,0.154
19,G28C C32G,0
20,G28C G80A,0.193
21,G28A U47G,0.268
22,G28A U47A,0
23,G28A C86A,0.0256
24,G28A C62G,0.111

row,Variant,self-cleavage
1,G28A C62A,0.0297
2,G28U G34C,0.101
3,G28U G34U,0.117
4,G28A C64G,0.108
5,G28A C64A,0.121
6,G28A C64U,0.117
7,G28C C44G,0
8,G28U G59A,0.0936
9,G28U C33A,0.124
10,G28U C33U,0.117
11,G28U G76A,0.142
12,G28U G76U,0.187
13,G28U G76C,0.242
14,G29A G76C,0.256
15,G28U U65G,0.128
16,G28U U65C,0.0707
17,G29A C44G,0.151
18,G29A C44A,0.198
19,G28C G52U,0.0831
20,G28C G52C,0.229
21,G28U G29C,0.106
22,G28U U37G,0.18
23,G28U U37C,0.141
24,G28A U79G,0.0489

row,Variant,self-cleavage
1,G29C A45C,0.111
2,G29C A45G,0
3,G28A C66U,0.138
4,G28U C84A,0.0594
5,G28U C84U,0.0489
6,G28A C49A,0.111
7,G28A C49U,0.0683
8,G28U C36A,0.0898
9,G28U C36G,0.0665
10,G28U C36U,0
11,G29A C85U,0.0978
12,G28C G55U,0.196
13,G28C G55A,0.18
14,G29A U65A,0.0627
15,G29A U65C,0.17
16,G28C C63U,0.0369
17,G28U U60A,0.17
18,G28U U60C,0.0755
19,G28A C32G,0
20,G28A C32A,0.234
21,G28C G81C,0.0875
22,G29A C86G,0.138
23,G29A C86U,0.0314
24,G28U G31C,0.189

row,Variant,self-cleavage
1,G29A G54A,0.0989
2,G29A G54C,0.113
3,G28U U79A,0.0978
4,G28U U79G,0.0978
5,G28U U79C,0.0707
6,G29A C75U,0.0339
7,G28U C61G,0.0678
8,G28A G31C,0
9,G28A G31U,0.133
10,G29A C84U,0.133
11,G29A C84A,0.245
12,G28C C86A,0.0583
13,G28C C86G,0.0692
14,G28A G81U,0.0287
15,G28A G81C,0.0674
16,G29A G38U,0.113
17,G28U A42C,0.0415
18,G28U A42U,0.138
19,G29A C30U,0.095
20,G29A C30A,0.0264
21,G28U A78C,0.0923
22,G28C G50C,0.0437
23,G28C G35U,0.0997
24,G28C G35C,0.0554

row,Variant,self-cleavage
1,G28C G35A,0.0326
2,G28C C84U,0.0396
3,G28U C64A,0.125
4,G28C G34C,0.156
5,G28C G34U,0.0386
6,G29A G68U,0.0841
7,G29A G68A,0.107
8,G29A G68C,0.111
9,G29A G35C,0.149
10,G29A G35U,0.101
11,G29A A43G,0.0386
12,G29A A43U,0.0252
13,G28U C57A,0.102
14,G28U C57U,0.208
15,G28U G82U,0.0468
16,G29C A42U,0.0314
17,G29C A42G,0
18,G29A C66U,0.114
19,G28U C62U,0.205
20,G28U C62A,0.154
21,G28C C36G,0.0773
22,G28U A45G,0.208
